{"source": "patent US20050026839A1", "about": "(GENERAL HOSPITAL, published 2005)", "binders": {"B1": {"name": "[Aib^1,3,M]PTH(1-21) (peptide)", "peptide": "[Aib]V[Aib]EIQL[Nle]HQ[hArg]AKWLASVRRY-NH2", "modifications": "N-terminus assumed", "SMILES": "CCCC[C@H](NC(=O)[C@H](CC(C)C)NC(=O)[C@H](CCC(N)=O)NC(=O)[C@@H](NC(=O)[C@H](CCC(=O)O)NC(=O)C(C)(C)NC(=O)[C@@H](NC(=O)C(C)(C)N)C(C)C)[C@@H](C)CC)C(=O)N[C@@H](Cc1c[nH]cn1)C(=O)N[C@@H](CCC(N)=O)C(=O)N[C@@H](CCCCNC(=N)N)C(=O)N[C@@H](C)C(=O)N[C@@H](CCCCN)C(=O)N[C@@H](Cc1c[nH]c2ccccc12)C(=O)N[C@@H](CC(C)C)C(=O)N[C@@H](C)C(=O)N[C@@H](CO)C(=O)N[C@H](C(=O)N[C@@H](CCCNC(=N)N)C(=O)N[C@@H](CCCNC(=N)N)C(=O)N[C@@H](Cc1ccc(O)cc1)C(N)=O)C(C)C", "notes": "unlabeled peptide; also called 674 [Aib^1,3, M]PTH (1-21); 674 [Aib^1,3M]PTH(1-21)"}, "B2": {"name": "[Aib^1,3,M]PTH(1-14) (peptide)", "peptide": "[Aib]V[Aib]EIQLMHQ[hArg]AKW-NH2", "modifications": "N-terminus assumed", "SMILES": "CC[C@H](C)[C@H](NC(=O)[C@H](CCC(=O)O)NC(=O)C(C)(C)NC(=O)[C@@H](NC(=O)C(C)(C)N)C(C)C)C(=O)N[C@@H](CCC(N)=O)C(=O)N[C@@H](CC(C)C)C(=O)N[C@@H](CCSC)C(=O)N[C@@H](Cc1c[nH]cn1)C(=O)N[C@@H](CCC(N)=O)C(=O)N[C@@H](CCCCNC(=N)N)C(=O)N[C@@H](C)C(=O)N[C@@H](CCCCN)C(=O)N[C@@H](Cc1c[nH]c2ccccc12)C(N)=O", "notes": "also called 671 [Aib^1,3, M]PTH (1-14); 671 [Aib^1,3M]PTH(1-14)"}}, "key": {"[1]": {"biological_target": "T1, wild-type human PTH/PTHrP receptor (hP1R-WT) (human, UniProt Q03431 27-593)", "T1 construct": "whole, on cells; HKRK-B28 cells express ~280,000 receptors per cell; also called PTH-1 receptor; PTH-1R", "T1 sequence (looked up)": "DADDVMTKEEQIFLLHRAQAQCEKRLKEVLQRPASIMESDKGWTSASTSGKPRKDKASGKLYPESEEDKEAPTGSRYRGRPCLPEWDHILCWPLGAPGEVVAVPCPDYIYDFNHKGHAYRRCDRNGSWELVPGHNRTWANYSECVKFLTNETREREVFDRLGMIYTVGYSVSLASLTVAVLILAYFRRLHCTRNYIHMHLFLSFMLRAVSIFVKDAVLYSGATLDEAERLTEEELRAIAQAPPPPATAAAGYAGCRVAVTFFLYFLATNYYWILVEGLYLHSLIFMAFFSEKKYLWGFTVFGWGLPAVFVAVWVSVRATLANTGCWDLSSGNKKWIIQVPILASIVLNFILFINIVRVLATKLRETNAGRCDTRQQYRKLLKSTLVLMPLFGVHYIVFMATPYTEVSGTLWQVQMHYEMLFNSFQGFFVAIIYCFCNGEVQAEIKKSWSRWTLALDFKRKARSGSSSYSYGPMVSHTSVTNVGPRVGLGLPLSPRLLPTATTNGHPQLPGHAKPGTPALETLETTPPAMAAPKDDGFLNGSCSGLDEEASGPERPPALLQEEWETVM", "experiment": "Scatchard transformation of homologous competition binding, 125I-[Aib1,3,M]PTH(1-21) tracer, COS-7 cells expressing P1R-WT", "description": "(§1) The cells were subsequently lysed with 0.5 mL […] NaOH and counted for radioactivity. For each tracer and in each experiment, the non-specific binding was determined as the radioactivity that bound in the presence of the same unlabeled peptide at a concentration of 1 μM, and was ˜1% of total radioactivity added for each tracer. The maximum specific binding (B₀) was the total radioactivity bound in the absence of competing ligand, corrected for nonspecific binding, and for each tracer, ranged from 8% to 20% of the total radioactivity added. Nonlinear regression was used to calculate binding IC₅₀ values (see below). Scatchard transformations of homologous competition binding data derived from studies with 26 fmol of ¹²⁵I-[Aib^{1,3},M]PTH(1-21) were employed for estimations of apparent equilibrium dissociation constant (kDapps) and total number of ligand binding sites (Bₘₐₓ), assuming a single class of binding sites and equal affinities of the iodinated and non iodinated ligand.\n(§2) To potentially improve affinity of this peptide, the paired Aib-1,3 modifications were introduced to produce [Aib^{1,3},M]PTH(1-21). […] The total specific binding observed in COS-7 cells tranfected with vector DNA alone was<2% of total radioactivity added. This radioligand, therefore, enabled competition binding experiments to be performed with both the wild-type and truncated PTH-1 receptors."}, "[2]": {"biological_target": "T2, truncated human P1R deleted for residues (24-181) (hP1R-delNt) (human, UniProt Q03431 182-593)", "T2 construct": "whole, on cells; also called delNT receptor", "T2 sequence (looked up)": "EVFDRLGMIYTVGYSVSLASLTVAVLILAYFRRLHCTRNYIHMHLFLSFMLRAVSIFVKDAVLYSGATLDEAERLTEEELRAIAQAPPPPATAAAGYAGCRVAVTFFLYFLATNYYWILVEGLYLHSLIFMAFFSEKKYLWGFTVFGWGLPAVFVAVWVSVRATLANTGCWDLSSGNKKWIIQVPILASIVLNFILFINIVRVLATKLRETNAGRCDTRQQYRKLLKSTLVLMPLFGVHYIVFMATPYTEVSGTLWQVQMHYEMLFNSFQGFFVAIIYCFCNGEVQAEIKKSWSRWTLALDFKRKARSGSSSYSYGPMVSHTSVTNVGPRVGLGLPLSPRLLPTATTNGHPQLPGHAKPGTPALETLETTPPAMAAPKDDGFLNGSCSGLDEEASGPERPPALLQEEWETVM", "experiment": "Scatchard transformation of homologous competition binding, 125I-[Aib1,3,M]PTH(1-21) tracer, COS-7 cells expressing P1R-delNt", "description": "as §1, §2"}, "[3]": {"biological_target": "T1, wild-type human PTH/PTHrP receptor …", "experiment": "competition binding, COS-7 cells expressing P1R-WT"}, "[4]": {"biological_target": "T1, wild-type human PTH/PTHrP receptor …", "experiment": "competition binding on HKRK-B28 cells", "description": "Competition Binding. Binding reactions were performed with HKRK-B28 cells or in COS-7 cells in 24-well plates. The cells were rinsed with 0.5 mL of binding buffer, and then treated successively with 100 μL binding buffer, 100 μL of binding buffer containing various amounts of unlabeled competitor ligand, and 100 μL of binding buffer containing ca. 100,000 cpm of ¹²⁵I-[M]PTH(1-21) or ¹²⁵I-[Aib^{1,3},M]PTH(1-21)} (ca. 26 fmol; final volume=300 μL). Incubations were 4 to 6 h at 4° C., at which time near equilibrium conditions were attained. Cells were then placed on ice, the binding medium was removed, and the monolayer was rinsed three times with 0.5 mL of cold binding buffer. The cells were subsequently lysed with 0.5 mL […] and counted for radioactivity. For each tracer and in each experiment, the non-specific binding was determined as the radioactivity that bound in the presence of the same unlabeled peptide at a concentration of 1 μM, and was ˜1% of total radioactivity added for each tracer. The maximum specific binding (B₀) was the total radioactivity bound in the absence of competing ligand, corrected for nonspecific binding, and for each tracer, ranged from 8% to 20% of the total radioactivity added. Nonlinear regression was used to calculate binding IC₅₀ values (see below). […]"}}, "note": "Square brackets hold non-standard residues; d marks the D form. Ends that are not written are not given here. hArg = N=C(N)NCCCC[C@H](N)C(=O)O; Nle = CCCC[C@H](N)C(=O)O; Aib = CC(C)(N)C(=O)O", "data": [{"binder": "B1", "values": [{"measurement": "Kd", "setting": "[1]", "value": 17, "unit": "nM"}, {"measurement": "Kd", "setting": "[2]", "value": 29, "unit": "nM"}]}, {"binder": "B2", "values": [{"measurement": "fold stronger binding affinity than [M]PTH(1-14)", "setting": "[3]", "value": "~10", "unit": "fold"}, {"measurement": "fold higher apparent affinity than [M]PTH(1-14)", "setting": "[4]", "value": 100, "unit": "fold"}]}]}
